Reference: PMC12796238
Like-named read-outs stand apart in the source and are kept apart here.

What was measured:
[1] = molecular target: Undamaged nucleosome core particle (Cy3-labeled human histone octamer on 191 bp Widom 601 DNA) (human) (UniProt P62807); assay: single-molecule fluorescence with optical tweezers
[2] = molecular target: Undamaged nucleosome core particle (Cy3-labeled human histone octamer on 191 bp Widom 601 DNA) (human) (UniProt P62807); assay: single-molecule fluorescence with optical tweezers; remark: listed apart in the source

Chain of YFP-PARP1 (poly(ADP-ribose) polymerase 1, wild type) (P09874 whole entry): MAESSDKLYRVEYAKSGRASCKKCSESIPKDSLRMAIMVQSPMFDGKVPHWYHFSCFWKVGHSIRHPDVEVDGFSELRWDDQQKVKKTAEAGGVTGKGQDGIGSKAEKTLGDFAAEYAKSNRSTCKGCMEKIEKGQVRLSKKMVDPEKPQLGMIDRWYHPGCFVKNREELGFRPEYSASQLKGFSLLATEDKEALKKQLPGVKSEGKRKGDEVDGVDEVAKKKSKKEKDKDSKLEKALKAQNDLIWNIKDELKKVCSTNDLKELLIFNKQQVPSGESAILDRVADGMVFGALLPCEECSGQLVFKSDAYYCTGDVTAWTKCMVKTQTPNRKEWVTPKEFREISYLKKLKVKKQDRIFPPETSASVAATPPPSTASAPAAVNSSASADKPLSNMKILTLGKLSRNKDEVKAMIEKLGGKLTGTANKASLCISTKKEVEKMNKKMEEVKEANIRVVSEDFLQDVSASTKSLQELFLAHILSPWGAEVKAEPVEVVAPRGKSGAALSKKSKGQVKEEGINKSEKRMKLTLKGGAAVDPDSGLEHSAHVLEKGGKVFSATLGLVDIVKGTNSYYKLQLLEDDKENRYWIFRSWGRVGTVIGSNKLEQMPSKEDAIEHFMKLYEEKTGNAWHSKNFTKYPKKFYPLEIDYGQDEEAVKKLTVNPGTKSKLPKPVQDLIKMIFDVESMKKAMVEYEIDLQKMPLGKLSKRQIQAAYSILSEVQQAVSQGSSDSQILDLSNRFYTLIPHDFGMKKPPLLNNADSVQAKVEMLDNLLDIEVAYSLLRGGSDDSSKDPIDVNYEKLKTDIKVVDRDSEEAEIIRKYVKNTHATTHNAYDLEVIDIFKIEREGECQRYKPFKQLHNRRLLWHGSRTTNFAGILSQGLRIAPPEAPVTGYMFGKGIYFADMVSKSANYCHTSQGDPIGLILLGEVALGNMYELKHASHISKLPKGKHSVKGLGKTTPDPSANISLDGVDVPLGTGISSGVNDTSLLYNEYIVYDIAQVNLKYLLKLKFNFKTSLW

Substance	lifetime [1] [s]	Kd [1] [nM]	Kd [2] [nM]
HaloTag-PARP1 H862A/Y896A/E988A (catalytically dead PARP1) (from UniProt P09874 1-1014) (enzyme)	56	–	–
YFP-PARP1 (poly(ADP-ribose) polymerase 1, wild type) (from UniProt P09874 1-1014) (enzyme)	2.5	10.2	1
